Kd data for 27 molecules are collected here from PMC10786891, “Massively parallel profiling of RNA-targeting CRISPR-Cas13d”.

T1: EsCas13d, nuclease-dead (Eubacterium siraeum, UniProt B0MS50, R295A;H300A;R849A;H854A)
T1 sequence: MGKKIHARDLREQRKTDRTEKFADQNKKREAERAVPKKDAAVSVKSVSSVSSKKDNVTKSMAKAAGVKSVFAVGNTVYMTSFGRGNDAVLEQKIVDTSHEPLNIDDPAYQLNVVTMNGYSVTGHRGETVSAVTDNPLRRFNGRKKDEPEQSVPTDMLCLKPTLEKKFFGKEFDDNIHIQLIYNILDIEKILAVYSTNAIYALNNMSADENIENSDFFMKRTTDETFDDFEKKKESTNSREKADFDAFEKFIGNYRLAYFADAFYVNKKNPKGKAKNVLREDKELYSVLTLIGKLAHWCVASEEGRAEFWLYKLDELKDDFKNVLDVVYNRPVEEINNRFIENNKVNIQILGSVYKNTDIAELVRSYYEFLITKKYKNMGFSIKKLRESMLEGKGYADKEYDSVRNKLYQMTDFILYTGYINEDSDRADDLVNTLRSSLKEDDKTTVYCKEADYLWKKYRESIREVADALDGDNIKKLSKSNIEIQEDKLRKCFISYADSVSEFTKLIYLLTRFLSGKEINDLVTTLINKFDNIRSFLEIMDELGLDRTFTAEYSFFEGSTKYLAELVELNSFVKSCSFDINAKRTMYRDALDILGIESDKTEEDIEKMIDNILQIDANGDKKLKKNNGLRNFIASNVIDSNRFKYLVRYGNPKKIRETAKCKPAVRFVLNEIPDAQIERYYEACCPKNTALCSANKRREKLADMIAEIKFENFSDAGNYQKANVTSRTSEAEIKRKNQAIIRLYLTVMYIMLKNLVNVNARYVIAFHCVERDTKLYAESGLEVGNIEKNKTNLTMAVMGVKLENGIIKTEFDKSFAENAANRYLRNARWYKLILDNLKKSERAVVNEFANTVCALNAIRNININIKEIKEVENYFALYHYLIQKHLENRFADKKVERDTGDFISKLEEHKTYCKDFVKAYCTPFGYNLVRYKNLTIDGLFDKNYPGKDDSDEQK

B1: target 1 MT 5'PFS UAA 3'PFS UAU (mixed)
RNA 1: CACCCGUGCAAAAAUGCAGGGGUCUAAAACUGAGCGGAUAACCUCUCUAUGG
RNA 2: GGGAAUGGAUCCACAUCUACGAAUUCUAACCAUAGAGAGGUUAUCCGCUCAUAUAGAUCGGAAGAGCACACGU
B2: target 1 MT 5'PFS GUG 3'PFS CGC (mixed)
RNA 1: CACCCGUGCAAAAAUGCAGGGGUCUAAAACUGAGCGGAUAACCUCUCUAUGG
RNA 2: GGGAAUGGAUCCACAUCUACGAAUUCGUGCCAUAGAGAGGUUAUCCGCUCACGCAGAUCGGAAGAGCACACGU
B3: target 1 MT 5'PFS UGG 3'PFS AGU (mixed)
RNA 1: CACCCGUGCAAAAAUGCAGGGGUCUAAAACUGAGCGGAUAACCUCUCUAUGG
RNA 2: GGGAAUGGAUCCACAUCUACGAAUUCUGGCCAUAGAGAGGUUAUCCGCUCAAGUAGAUCGGAAGAGCACACGU
B4: target 1 MT 5'PFS UAC 3'PFS CGG (mixed)
RNA 1: CACCCGUGCAAAAAUGCAGGGGUCUAAAACUGAGCGGAUAACCUCUCUAUGG
RNA 2: GGGAAUGGAUCCACAUCUACGAAUUCUACCCAUAGAGAGGUUAUCCGCUCACGGAGAUCGGAAGAGCACACGU
B5: target 1 insC 3' of 17,insC 3' of 10 (mixed)
RNA 1: CACCCGUGCAAAAAUGCAGGGGUCUAAAACUGAGCGGAUAACCUCUCUAUGG
RNA 2: GGGAAUGGAUCCACAUCUACGAAUUCGUACCAUAGCAGAGGUUCAUCCGCUCACCGAGAUCGGAAGAGCACACGU
B6: target 1 MT 5'PFS GUG 3'PFS AGU (mixed)
RNA 1: CACCCGUGCAAAAAUGCAGGGGUCUAAAACUGAGCGGAUAACCUCUCUAUGG
RNA 2: GGGAAUGGAUCCACAUCUACGAAUUCGUGCCAUAGAGAGGUUAUCCGCUCAAGUAGAUCGGAAGAGCACACGU
B7: target 1 MT 5'PFS GGG 3'PFS UCA (mixed)
RNA 1: CACCCGUGCAAAAAUGCAGGGGUCUAAAACUGAGCGGAUAACCUCUCUAUGG
RNA 2: GGGAAUGGAUCCACAUCUACGAAUUCGGGCCAUAGAGAGGUUAUCCGCUCAUCAAGAUCGGAAGAGCACACGU
B8: target 1 MT 5'PFS GUG 3'PFS AGC (mixed)
RNA 1: CACCCGUGCAAAAAUGCAGGGGUCUAAAACUGAGCGGAUAACCUCUCUAUGG
RNA 2: GGGAAUGGAUCCACAUCUACGAAUUCGUGCCAUAGAGAGGUUAUCCGCUCAAGCAGAUCGGAAGAGCACACGU
B9: target 1 MT 5'PFS GCC 3'PFS CUU (mixed)
RNA 1: CACCCGUGCAAAAAUGCAGGGGUCUAAAACUGAGCGGAUAACCUCUCUAUGG
RNA 2: GGGAAUGGAUCCACAUCUACGAAUUCGCCCCAUAGAGAGGUUAUCCGCUCACUUAGAUCGGAAGAGCACACGU
B10: target 1 MT 5'PFS GGG 3'PFS UCC (mixed)
RNA 1: CACCCGUGCAAAAAUGCAGGGGUCUAAAACUGAGCGGAUAACCUCUCUAUGG
RNA 2: GGGAAUGGAUCCACAUCUACGAAUUCGGGCCAUAGAGAGGUUAUCCGCUCAUCCAGAUCGGAAGAGCACACGU
B11: target 1 MT 5'PFS GUG 3'PFS AGG (mixed)
RNA 1: CACCCGUGCAAAAAUGCAGGGGUCUAAAACUGAGCGGAUAACCUCUCUAUGG
RNA 2: GGGAAUGGAUCCACAUCUACGAAUUCGUGCCAUAGAGAGGUUAUCCGCUCAAGGAGAUCGGAAGAGCACACGU
B12: target 1 MT 5'PFS GUG 3'PFS CGU (mixed)
RNA 1: CACCCGUGCAAAAAUGCAGGGGUCUAAAACUGAGCGGAUAACCUCUCUAUGG
RNA 2: GGGAAUGGAUCCACAUCUACGAAUUCGUGCCAUAGAGAGGUUAUCCGCUCACGUAGAUCGGAAGAGCACACGU
B13: target 1 MT 5'PFS GGC 3'PFS CCC (mixed)
RNA 1: CACCCGUGCAAAAAUGCAGGGGUCUAAAACUGAGCGGAUAACCUCUCUAUGG
RNA 2: GGGAAUGGAUCCACAUCUACGAAUUCGGCCCAUAGAGAGGUUAUCCGCUCACCCAGAUCGGAAGAGCACACGU
B14: target 1 MT 5'PFS GCA 3'PFS AGG (mixed)
RNA 1: CACCCGUGCAAAAAUGCAGGGGUCUAAAACUGAGCGGAUAACCUCUCUAUGG
RNA 2: GGGAAUGGAUCCACAUCUACGAAUUCGCACCAUAGAGAGGUUAUCCGCUCAAGGAGAUCGGAAGAGCACACGU
B15: target 1 MT 5'PFS GCC 3'PFS CUC (mixed)
RNA 1: CACCCGUGCAAAAAUGCAGGGGUCUAAAACUGAGCGGAUAACCUCUCUAUGG
RNA 2: GGGAAUGGAUCCACAUCUACGAAUUCGCCCCAUAGAGAGGUUAUCCGCUCACUCAGAUCGGAAGAGCACACGU
B16: target 1 MT 5'PFS AGG 3'PFS UGC (mixed)
RNA 1: CACCCGUGCAAAAAUGCAGGGGUCUAAAACUGAGCGGAUAACCUCUCUAUGG
RNA 2: GGGAAUGGAUCCACAUCUACGAAUUCAGGCCAUAGAGAGGUUAUCCGCUCAUGCAGAUCGGAAGAGCACACGU
B17: target 1 MT 5'PFS AGU 3'PFS UCC (mixed)
RNA 1: CACCCGUGCAAAAAUGCAGGGGUCUAAAACUGAGCGGAUAACCUCUCUAUGG
RNA 2: GGGAAUGGAUCCACAUCUACGAAUUCAGUCCAUAGAGAGGUUAUCCGCUCAUCCAGAUCGGAAGAGCACACGU
B18: target 1 MT 5'PFS GGG 3'PFS UCU (mixed)
RNA 1: CACCCGUGCAAAAAUGCAGGGGUCUAAAACUGAGCGGAUAACCUCUCUAUGG
RNA 2: GGGAAUGGAUCCACAUCUACGAAUUCGGGCCAUAGAGAGGUUAUCCGCUCAUCUAGAUCGGAAGAGCACACGU
B19: target 1 MT 5'PFS GUG 3'PFS CGG (mixed)
RNA 1: CACCCGUGCAAAAAUGCAGGGGUCUAAAACUGAGCGGAUAACCUCUCUAUGG
RNA 2: GGGAAUGGAUCCACAUCUACGAAUUCGUGCCAUAGAGAGGUUAUCCGCUCACGGAGAUCGGAAGAGCACACGU
B20: target 1 MT 5'PFS GUG 3'PFS CGA (mixed)
RNA 1: CACCCGUGCAAAAAUGCAGGGGUCUAAAACUGAGCGGAUAACCUCUCUAUGG
RNA 2: GGGAAUGGAUCCACAUCUACGAAUUCGUGCCAUAGAGAGGUUAUCCGCUCACGAAGAUCGGAAGAGCACACGU
B21: target 1 MT 5'PFS GGG 3'PFS UCG (mixed)
RNA 1: CACCCGUGCAAAAAUGCAGGGGUCUAAAACUGAGCGGAUAACCUCUCUAUGG
RNA 2: GGGAAUGGAUCCACAUCUACGAAUUCGGGCCAUAGAGAGGUUAUCCGCUCAUCGAGAUCGGAAGAGCACACGU
B22: target 1 MT 5'PFS GCA 3'PFS AGA (mixed)
RNA 1: CACCCGUGCAAAAAUGCAGGGGUCUAAAACUGAGCGGAUAACCUCUCUAUGG
RNA 2: GGGAAUGGAUCCACAUCUACGAAUUCGCACCAUAGAGAGGUUAUCCGCUCAAGAAGAUCGGAAGAGCACACGU
B23: target 1 MT 5'PFS GCC 3'PFS CUA (mixed)
RNA 1: CACCCGUGCAAAAAUGCAGGGGUCUAAAACUGAGCGGAUAACCUCUCUAUGG
RNA 2: GGGAAUGGAUCCACAUCUACGAAUUCGCCCCAUAGAGAGGUUAUCCGCUCACUAAGAUCGGAAGAGCACACGU
B24: target 1 insC 3' of 12,insC 3' of 9 (mixed)
RNA 1: CACCCGUGCAAAAAUGCAGGGGUCUAAAACUGAGCGGAUAACCUCUCUAUGG
RNA 2: GGGAAUGGAUCCACAUCUACGAAUUCGUACCAUAGAGAGGCUUACUCCGCUCACCGAGAUCGGAAGAGCACACGU
B25: target 1 MT 5'PFS GAA 3'PFS AUA (mixed)
RNA 1: CACCCGUGCAAAAAUGCAGGGGUCUAAAACUGAGCGGAUAACCUCUCUAUGG
RNA 2: GGGAAUGGAUCCACAUCUACGAAUUCGAACCAUAGAGAGGUUAUCCGCUCAAUAAGAUCGGAAGAGCACACGU
B26: target 1 MT 5'PFS GGG 3'PFS AAA (mixed)
RNA 1: CACCCGUGCAAAAAUGCAGGGGUCUAAAACUGAGCGGAUAACCUCUCUAUGG
RNA 2: GGGAAUGGAUCCACAUCUACGAAUUCGGGCCAUAGAGAGGUUAUCCGCUCAAAAAGAUCGGAAGAGCACACGU
B27: target 1 MT 5'PFS GCC 3'PFS CUG (mixed)
RNA 1: CACCCGUGCAAAAAUGCAGGGGUCUAAAACUGAGCGGAUAACCUCUCUAUGG
RNA 2: GGGAAUGGAUCCACAUCUACGAAUUCGCCCCAUAGAGAGGUUAUCCGCUCACUGAGAUCGGAAGAGCACACGU

The data set deals with T1, EsCas13d, nuclease-dead. Description: crRNA (strand 1, pre-loaded); Mg2+; 40 mM Tris-HCl pH 7.5, 150 mM NaCl, 6 mM MgCl2, 1 mM DTT, 0.1% Tween-20, 0.2 mg/ml BSA; 25 C; 10 min per concentration, then washed. Conditions: tags: His6-TwinStrep-SUMO cleaved; N-terminal SNAP kept (SNAP-Surface 488); label: 3' end held by stalled T7 RNA polymerase.
On to B1, for which the Kd was 29 ± 6 nM. As for B2, the figure is 22.6 ± 1.7 nM; as for B3, 67 ± 33 nM. To B4 belongs 44.5 ± 21 nM; to B5, 52 ± 18 nM; to B6, 11.4 ± 0.8 nM.

As for B7, the Kd was 18.6 ± 3.75 nM. This Kd lies about 1.6-fold higher than the previous one. As for B8, the figure is 9.45 ± 0.75 nM. In turn, B9 yielded a Kd of 15.6 ± 5.05 nM. On to B10, for which the affinity, expressed as Kd, was 28 ± 5 nM. Compared with the last molecule, the Kd is about 1.8-fold higher. As for B11, the figure is 28.7 ± 1.75 nM. As for B12, the figure is 6.83 ± 0.425 nM; as for B13, around 25 nM; as for B14, 43.5 ± 10 nM. Turning to B15, the Kd was found to be 33 ± 15 nM. Molecule B16 yielded a Kd of around 110 nM. As for B17, the figure is 29 ± 11.5 nM; as for B18, 14.6 ± 2.1 nM; as for B19, 23.4 ± 1.85 nM.

B20 yielded an equilibrium dissociation constant (Kd) of 22.9 ± 2.2 nM.

On to B21, for which binding was characterised by a dissociation constant (Kd) of 20.7 ± 3.55 nM. Regarding B22, the Kd was 22.5 ± 4.15 nM. As for B23, the figure is 13.2 ± 3.15 nM; as for B24, 21.9 ± 1 nM. As for B25, binding was put at a Kd of 32 ± 7.5 nM. As to B26, the Kd worked out at 50 ± 11.5 nM. To B27 belongs 17 ± 6 nM.
